Source: US20140228277A1 (Genentech, published 2014)
Positions of bridges follow the written chain, without caps; N, C: chain ends. Non-standard residues stand in square brackets, D forms with d. No end group written: not given here. Cit = NC(=O)NCCC[C@H](N)C(=O)O; Orn = NCCC[C@H](N)C(=O)O

B1: SEQ ID NO 76 (peptide)
chain: NGDNMYCRLLGLGCE
modifications: not fully specified (C-terminus, bridges); cysteine pairing not given here
notes: not shown: M13 major coat protein; peptide fused to its N-terminus
B2: SEQ ID NO 81 (peptide)
chain: NVEHIHCRLLGLGCG
modifications: not fully specified (C-terminus, bridges); cysteine pairing not given here
notes: as for B1
B3: SEQ ID NO 77 (peptide)
chain: DVESVYCRLLGLGCG
modifications: not fully specified (C-terminus, bridges); cysteine pairing not given here
notes: as for B1
B4: SEQ ID NO 78 (peptide)
chain: NDESVYCRLLGIGCG
notes: as for B1
B5: SEQ ID NO 85 (peptide)
chain: KEESIYCRLLGHGCG
modifications: not fully specified (C-terminus, bridges); cysteine pairing not given here
notes: as for B1
B6: SEQ ID NO 79 (peptide)
chain: TEESLYCRLLGVGCG
modifications: not fully specified (C-terminus, bridges); cysteine pairing not given here
notes: as for B1
B7: BACE030 (peptide)
peptide: Ac-ESMYCRLLGIGCG-NH2
modifications: disulfide 5-12
SMILES: CC[C@H](C)[C@@H]1NC(=O)CNC(=O)[C@H](CC(C)C)NC(=O)[C@H](CC(C)C)NC(=O)[C@H](CCCNC(=N)N)NC(=O)[C@@H](NC(=O)[C@H](Cc2ccc(O)cc2)NC(=O)[C@H](CCSC)NC(=O)[C@H](CO)NC(=O)[C@H](CCC(=O)O)NC(C)=O)CSSC[C@@H](C(=O)NCC(N)=O)NC(=O)CNC1=O
notes: Minimal version of BACE020 with full activity
B8: BACE060 (peptide)
peptide: Ac-ESMYC[Cit]LLGIGCG-NH2
modifications: disulfide 5-12 (inferred)
notes: also called BACE030 with Arg to citrulline
B9: SEQ ID NO 75 (peptide)
chain: IEESIYCRLLGFGCG
notes: as for B1
B10: SEQ ID NO 84 (peptide)
chain: TDESIYCRLLSIACG
modifications: not fully specified (C-terminus, bridges); cysteine pairing not given here
notes: as for B1
B11: BACE059 (peptide)
peptide: Ac-ESMYC[Orn]LLGIGCG-NH2
modifications: disulfide 5-12 (inferred)
notes: also called BACE030 with Arg to ornithine
B12: SEQ ID NO 82 (peptide)
chain: NDDSLYCRLLGLGCG
modifications: not fully specified (C-terminus, bridges); cysteine pairing not given here
notes: as for B1
B13: SEQ ID NO 86 (peptide)
chain: NEENMYCRLMGIGCG
modifications: not fully specified (C-terminus, bridges); cysteine pairing not given here
notes: as for B1
B14: BMS2 (peptide)
peptide: Ac-ALYPYFLPISAK-NH2
notes: also called Peptide 2 of Kornacker et al
B15: BMS4 (peptide)
peptide: Ac-YPYFIPL-NH2
notes: also called Peptide 4 of Kornacker et al
B16: BMS1 (peptide)
peptide: Ac-NLTTYPYFIPLP-NH2
notes: also called Peptide 1 of Kornacker et al
B17: SEQ ID NO 80 (peptide)
chain: KEESIHCRLLGLGCG
notes: as for B1
B18: SEQ ID NO 88 (peptide)
chain: HEDHLYCRLLGIGCG
modifications: not fully specified (C-terminus, bridges); cysteine pairing not given here
notes: as for B1

Columns and labels:
[1] = target: T1, recombinant human BACE1 (rhBACE1) (human, UniProt P56817 22-457, limits assumed); experiment: spot phage ELISA, plate-immobilized BACE1 against BSA
[2] = target: T1, recombinant human BACE1 (rhBACE1); experiment: cell-based or functional assay
[3] = target: T1, recombinant human BACE1 (rhBACE1); experiment: FP competition binding; 12 nM rhBACE1, competitor probe 5-TAMRA-BACE020
Method: BACE1 binding assays were carried out in a final volume of 10 μL per well in black 384-well microplates (Proxiplate-Plus; Perkin Elmer, Waltham, Mass.). […] The reaction was permitted to proceed towards equilibrium for 2 h at ambient temperature prior to fluorescence polarization measurement using Envision (Perkin Elmer). The parallel and perpendicular fluorescent emissions measured in each well at 595 nm (excitation 531 nm polarized light) were used to determine the milli-polarization level (mP) using the following formula: mP=1000*(S−G*P)/(S+G*P) where S=parallel emission, P=perpendicular emission and G=0.65.
The affinities of BACE1 peptide ligands were measured using the abovementioned competition binding FP assay for determining IC₅₀ values with serially diluted peptides. A Caliper assay was used to measure the inhibition of BACE1 enzymatic activity by peptide ligands.

T1 sequence (P56817 22-457 limits assumed): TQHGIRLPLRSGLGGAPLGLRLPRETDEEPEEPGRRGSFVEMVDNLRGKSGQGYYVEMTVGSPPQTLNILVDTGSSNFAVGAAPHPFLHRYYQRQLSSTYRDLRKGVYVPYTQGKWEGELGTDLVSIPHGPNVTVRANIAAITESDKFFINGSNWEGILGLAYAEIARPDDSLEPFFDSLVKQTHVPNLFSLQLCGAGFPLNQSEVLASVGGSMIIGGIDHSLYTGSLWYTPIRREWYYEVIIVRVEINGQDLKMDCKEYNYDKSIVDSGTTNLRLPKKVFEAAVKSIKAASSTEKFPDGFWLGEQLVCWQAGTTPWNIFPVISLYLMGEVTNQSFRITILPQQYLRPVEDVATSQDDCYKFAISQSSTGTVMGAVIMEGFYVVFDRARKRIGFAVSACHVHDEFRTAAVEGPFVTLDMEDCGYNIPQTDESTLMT

Binder	fold improvement of signal/noise ratio over parent BACE017 [1]	IC50 [3]	Caliper (MCE) BACE1 activity assay IC50 [2]	further results
B1	> 5 fold	–	–	–
Ac-SGPYFIEYMSAV-NH2 (also called BACE10) [BACE010 (Ac-SGPYFIEYMSAV-NH2)]	–	> 10 µM	–	Caliper (MCE) BACE1 activity assay, EC50 (rate increased) [2]: 2.2 µM
B2	> 5 fold	–	–	–
B3	> 5 fold	–	–	–
Ac-EESMYCRLLGIGCG-NH2 (disulfide 6-13 (inferred), N-terminal truncation of BACE020) [BACE029]	–	0.012 µM	0.013 µM	–
B4	> 5 fold	–	–	–
Ac-AEESMYCRLLGIGCG-NH2 (disulfide 7-14 (inferred), also called BACE020 position 1 to Ala) [BACE042]	–	0.031 µM	0.012 µM	–
Ac-NEASMYCRLLGIGCG-NH2 (disulfide 7-14 (inferred), also called BACE020 Glu3 to Ala) [BACE044]	–	0.131 µM	0.046 µM	–
Ac-NEESMYCRLLAIGCG-NH2 (disulfide 7-14 (inferred), also called BACE020 Gly11 to Ala) [BACE051]	–	0.036 µM	0.018 µM	–
Ac-NEESMYCALLGIGCG-NH2 (disulfide 7-14 (inferred), also called BACE020 Arg8 to Ala mutant) [BACE048]	–	> 10 µM	> 10 µM	–
Ac-NEESMFCRLLGIGCG-NH2 (disulfide 7-14 (inferred), also called BACE020 Tyr6 to Phe) [BACE055]	–	0.027 µM	0.011 µM	–
Ac-NEESMYCRLLGIGCA-NH2 (disulfide 7-14 (inferred), also called BACE020 Gly15 to Ala) [BACE054]	–	0.012 µM	0.007 µM	–
Ac-NEESMYCRLLGIACG-NH2 (disulfide 7-14 (inferred), also called BACE020 Gly13 to Ala) [BACE053]	–	0.037 µM	0.007 µM	–
Ac-NEEHMYCRLLGIGCG-NH2 (disulfide 7-14 (inferred), also called BACE020 Ser4 to His) [BACE056]	–	4.5 µM	3.58 µM	–
Ac-NAESMYCRLLGIGCG-NH2 (disulfide 7-14 (inferred), also called BACE020 Glu2 to Ala) [BACE043]	–	0.041 µM	0.013 µM	–
Ac-NEESMYCRLLGAGCG-NH2 (disulfide 7-14 (inferred), also called BACE020 Ile12 to Ala) [BACE052]	–	0.039 µM	0.014 µM	–
Ac-NEESMYCRALGIGCG-NH2 (disulfide 7-14 (inferred), also called BACE020 Leu9 to Ala) [BACE049]	–	7.7 µM	1.38 µM	–
Ac-NEEAMYCRLLGIGCG-NH2 (disulfide 7-14 (inferred), also called BACE020 Ser4 to Ala) [BACE045]	–	2.34 µM	0.304 µM	–
Ac-NEESMACRLLGIGCG-NH2 (disulfide 7-14 (inferred), also called BACE020 Tyr6 to Ala) [BACE047]	–	0.225 µM	0.093 µM	–
Ac-NEESMYCRLAGIGCG-NH2 (disulfide 7-14 (inferred), also called BACE020 Leu10 to Ala) [BACE050]	–	0.186 µM	0.049 µM	–

Binder	fold improvement of signal/noise ratio over parent BACE017 [1]	IC50 [3]	Caliper (MCE) BACE1 activity assay IC50 [2]	further results
Ac-NEESAYCRLLGIGCG-NH2 (disulfide 7-14 (inferred), also called BACE020 Met5 to Ala) [BACE046]	–	1.57 µM	0.435 µM	–
B5	> 5 fold	–	–	–
Ac-NELSPYCRLMGLGCD-NH2 (disulfide 7-14 (inferred), also called BACE-19) [BACE019]	–	0.01 µM	0.015 µM	HTRF BACE1 activity assay IC50 [2]: 0.01 µM
Ac-SMYCRLLGIGCG-NH2 (disulfide 4-11 (inferred), also called BACE31) [BACE031]	–	2.6 µM	1.28 µM	–
B6	> 5 fold	–	–	–
B7	–	0.023 µM	0.018 µM	–
Ac-ESMYCKLLGIGCG-NH2 (disulfide 5-12 (inferred), also called BACE030 with Arg to lysine) [BACE058]	–	0.486 µM	0.074 µM	–
B8	–	2.3 µM	0.772 µM	–
Ac-KEESIYCRLMGLGCG-NH2 (disulfide 7-14 (inferred), also called BACE-18) [BACE018]	–	0.102 µM	0.054 µM	HTRF BACE1 activity assay IC50 [2]: 0.077 µM
B9	> 5 fold	–	–	–
B10	> 5 fold	–	–	–
B11	–	0.512 µM	0.222 µM	–
B12	> 5 fold	–	–	–
B13	> 5 fold	–	–	–
B14	–	> 10 µM	–	Caliper (MCE) BACE1 activity assay, EC50 (rate increased) [2]: 26.4 µM
B15	–	> 10 µM	–	Caliper (MCE) BACE1 activity assay, EC50 (rate increased) [2]: 1.76 µM
B16	–	> 10 µM	–	Caliper (MCE) BACE1 activity assay, EC50 (rate increased) [2]: 0.227 µM
B17	> 5 fold	–	–	–
B18	> 5 fold	–	–	–
